By Kd is commonly meant the concentration at which binding is half-saturated.

We go through two substances from article PMC3775154.

Holding throughout (assay): SPR
In general terms: Surface plasmon resonance follows binding to a sensor surface in real time, without labels.

Assay [1] deals with recombinant human FcRn (human) (UniProt P55899).
The target in assay [2] is recombinant human FcγRIIIa F158 (human) (UniProt P08637).
Assay [3] concerns the target recombinant human FcγRIIIa V158 (human).
For assay [4], the target named is recombinant human FcγRIIIb (human) (UniProt O75015).
Chain of UniProt O75015 (O75015 17-200): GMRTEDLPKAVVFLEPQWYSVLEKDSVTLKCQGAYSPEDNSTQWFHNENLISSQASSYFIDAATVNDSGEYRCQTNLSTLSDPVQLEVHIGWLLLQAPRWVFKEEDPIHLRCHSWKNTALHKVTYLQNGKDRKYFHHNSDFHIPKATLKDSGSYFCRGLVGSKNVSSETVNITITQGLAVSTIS
Assay [5] has as its target recombinant human FcγRIIb (human) (UniProt P31994).
Chain of UniProt P31994 (P31994 43-310): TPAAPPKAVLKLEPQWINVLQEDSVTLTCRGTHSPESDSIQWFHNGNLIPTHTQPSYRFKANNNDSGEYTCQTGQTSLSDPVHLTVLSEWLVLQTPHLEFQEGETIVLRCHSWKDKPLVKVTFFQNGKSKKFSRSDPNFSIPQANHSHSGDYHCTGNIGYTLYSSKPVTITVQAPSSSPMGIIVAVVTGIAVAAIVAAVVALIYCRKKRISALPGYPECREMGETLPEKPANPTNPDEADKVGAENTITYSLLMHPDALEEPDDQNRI
Assay [6] has as its target recombinant human FcγRIa (human) (UniProt P12314).
Chain of UniProt P12314 (P12314 16-374): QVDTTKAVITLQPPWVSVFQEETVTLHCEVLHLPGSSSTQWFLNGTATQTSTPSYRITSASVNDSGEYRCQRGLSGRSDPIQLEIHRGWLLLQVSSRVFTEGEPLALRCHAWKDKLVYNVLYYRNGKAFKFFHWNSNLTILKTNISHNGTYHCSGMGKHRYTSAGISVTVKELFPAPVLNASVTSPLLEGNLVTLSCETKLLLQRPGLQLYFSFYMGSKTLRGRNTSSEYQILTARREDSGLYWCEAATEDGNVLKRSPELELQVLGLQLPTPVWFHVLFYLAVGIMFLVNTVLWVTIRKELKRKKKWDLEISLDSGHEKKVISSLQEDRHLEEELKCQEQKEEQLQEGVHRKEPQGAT

Chain of recombinant human FcγRIIIa V158 (human) (P08637 17-208): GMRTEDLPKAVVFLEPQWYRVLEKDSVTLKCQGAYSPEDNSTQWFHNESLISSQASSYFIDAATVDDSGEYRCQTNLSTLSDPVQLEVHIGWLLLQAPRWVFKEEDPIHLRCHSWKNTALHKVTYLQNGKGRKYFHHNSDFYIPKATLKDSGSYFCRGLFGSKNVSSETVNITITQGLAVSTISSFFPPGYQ
Chain of UniProt P55899 (P55899 24-297): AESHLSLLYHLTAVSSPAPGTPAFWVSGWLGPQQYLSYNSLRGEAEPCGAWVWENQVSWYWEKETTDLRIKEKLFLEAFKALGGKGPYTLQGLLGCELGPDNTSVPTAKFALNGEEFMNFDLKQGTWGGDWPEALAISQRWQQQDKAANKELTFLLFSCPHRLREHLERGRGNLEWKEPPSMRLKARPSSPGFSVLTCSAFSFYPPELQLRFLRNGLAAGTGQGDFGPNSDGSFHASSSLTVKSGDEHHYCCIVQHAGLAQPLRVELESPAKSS

Take originator rituximab (antibody): the Kd in assay [1] was 0.55 to 0.58 µM; in assay [2], 7.4 to 10.3 µM; in assay [3], 3.5 to 4.9 µM; in assay [4], 9.2 to 11.7 µM; in assay [5], 11.4 to 12.8 µM; in assay [6], 0.0104 to 0.0118 µM.
As for “proposed biosimilar rituximab GP2013 (antibody)”, the Kd fell in the range of 0.54 to 0.58 µM in assay [1]; 8.5 to 10.9 µM in assay [2]; 4.2 to 5 µM in assay [3]; 9.9 to 12.4 µM in assay [4]; 11 to 12.7 µM in assay [5]; 0.0109 to 0.0124 µM in assay [6].
